“Also recorded” adds a separate entry of the source.
Experiments:
[1] = tested on: cytokine-treated humanized mice (NSG engrafted with human HSCs, human IL-15 and Flt-3L plasmids); assay: Serum human cytokine release after mAb injection in IL-15/Flt-3L cytokine-treated humanized mice; format: in vivo, mouse; details: for change in serum levels of human cytokines: vs saline control or baseline; for serum levels of human cytokines at 24 hours: 24 hours post-injection
Experimental: NSG mice were purchased from the Jackson Laboratories and maintained under specific pathogen-free conditions in the animal facilities at Nanyang Technological University and National University of Singapore. To reconstitute mice, newborn pups (less than 48 hours old) were irradiated with 100 cGy using a Gamma radiation source and injected intracardially with CD34+CD133+ cells ([…] cells/recipient). Human IL-15 and human Fltr-3 ligand were cloned separately into pcDNA3.1(+) vector (Invitrogen, USA) as described previously (Chen Q et al. (2009) Proc Natl Acad Sci, USA, 106:21783-21788). For hydrodynamic gene delivery, 12 week-old humice were injected with 50 μg of each plasmid in a total of 2 ml saline within 7 seconds using a 27 gauge needle. All research with human samples and mice was performed in compliance with the institutional guidelines.
(§1) The blood sampling at seven days post-cytokines treatment was used as the time point (−48 hours) for setting the baseline of the production levels of different cytokines and human cells absolute numbers and percentages. […] Blood samples were collected 2 and 24 hours after the mAb treatment, and all injected animals were euthanized at 24 hours.
(§2) Single cell suspensions were prepared from spleen by standard procedures. […] Cells were stained with appropriate antibodies in 100 μl PBS containing 0.2% BSA and 0.05% sodium azide for 30 min on ice. Flow cytometry was performed on a LSRII flow cytometer using the FACSDiva software (BD, Franklin Lakes, N.J.), and samples were analyzed using the Flowjo software. For cytokine detection, the concentration of human IL-2, IL-4, IL-6, IL-8, IL-1β, TNF-α, and IFN-γ were determined in sera using a BD Cytometric Bead Array (CBA) (BD Biosciences, USA). The experiments were conducted according to the manufacturer's recommendation and results were analyzed with the FCAP array software (Soft Flow Hungary, BD Biosciences).
NSG mice were purchased from the Jackson Laboratories and maintained under specific pathogen-free conditions in the animal facilities at Nanyang Technological University and National University of Singapore. To reconstitute mice, newborn pups (less than 48 hours old) were irradiated with 100 cGy using a Gamma radiation source and injected intracardially with CD34+CD133+ cells (1×10^5 cells/recipient). Human IL-15 and human Fltr-3 ligand were cloned separately into pcDNA3.1(+) vector (Invitrogen, USA) as described previously. For hydrodynamic gene delivery, 12 week-old humice were injected with 50 μg of each plasmid in a total of 2 ml saline within 7 seconds using a 27 gauge needle. All research with human samples and mice was performed in compliance with the institutional guidelines.
as §2, with “procedures. The following human conjugated antibodies were used for flow cytometry staining.” for “procedures.”, “IL-2,” for “IL-2, IL-4,”, “TNF-α, IFN-γ” for “TNF-α,”, “mouse IL-2, IL-6, IL-8” for “IFN-γ”

[2] = tested on: cytokine-treated humanized mice; assay: Liver enzymes (AST, ALT) in cytokine-treated humanized mice; format: in vivo, mouse; details: 24 hours post-treatment
Experimental: as §1

[3] = tested on: human T, B, NK cells and monocytes in cytokine-treated humanized mice; assay: Immunophenotyping of human cell lineages in peripheral blood (flow cytometry) of cytokine-treated humanized mice; format: in vivo, mouse
Experimental: as §1
as §2, with “procedures. The following human conjugated antibodies were used for flow cytometry staining.” for “procedures.”, “IL-2,” for “IL-2, IL-4,”, “TNF-α, IFN-γ” for “TNF-α,”, “mouse IL-2, IL-6, IL-8” for “IFN-γ”

[4] = tested on: cytokine-treated humanized mice; assay: Serum mouse cytokines (mIL-2, mIFN-γ, mIL-6) in cytokine-treated humanized mice; format: in vivo; details: mice treated with IL-15 and FLT3L or M-CSF plasmid
Experimental: (§3) Single cell suspensions were prepared from spleen by standard procedures. The following human conjugated antibodies were used for flow cytometry staining. CD3, CD4, CD8, CD19, CD28, CD45, CD45RO, CCR7 from Biolegend; CD14 and CD56 from BD Biosciences (BD Biosciences, USA) and mouse CD45.1 from eBioscience. Cells were stained with appropriate antibodies in 100 μl PBS containing 0.2% BSA and 0.05% sodium azide for 30 min on ice. Flow cytometry was performed on a LSRII flow cytometer using the FACSDiva software (BD, Franklin Lakes, N.J.), and samples were analyzed using the Flowjo software. For cytokine detection, the concentration of human IL-2, IL-6, IL-8, IL-1β, TNF-α, IFN-γ and mouse IL-2, IL-6, IL-8 were determined in sera using a BD Cytometric Bead Array (CBA) (BD Biosciences, USA). The experiments were conducted according to the manufacturer's recommendation and results were analyzed with the FCAP array software (Soft Flow Hungary, BD Biosciences).

[5] = tested on: humanized mice treated with M-CSF human cytokine plasmid; assay: Serum human cytokine release in humanized mice treated with human M-CSF plasmid; format: in vivo, mouse; details: 2 hours post-injection
Experimental: as §1
as §3, with “Biosciences). […]” for “Biosciences).”

PBMCs = details: incubated in aqueous phase; previous study; cited from earlier work
[6] = 2 hours post-injection, 1 mg/kg i.v.
[7] = IL-15 and Flt-3L treated mice, 2 hours post-injection, 1 mg/kg i.v.
[8] = 2 and 24 hrs post-injection, 1 mg/kg

Substance | change in serum levels of human cytokines [1, 6] | serum levels of human cytokines at 24 hours ([1]; 1 mg/kg i.v.) | serum levels of human IL-6 [1, 7] | Aspartate aminotransferase (AST) level [2] | NK cell numbers in peripheral blood [3, 8] | T cell numbers in peripheral blood [3, 8] | reduction of the CD14+ cells ([3]; 2 hours post-injection) | mouse IL-6 (mIL-6) in sera [4] | mouse mIL-2 and mIFN-γ in sera [4] | serum levels of human IL-6 [5] | serum levels of human IL-8 [5] | serum levels of human IL-2 ([1]; IL-15 and Flt-3L treated mice, 2 hours post-injection, 1 mg/kg) | serum levels of human IL-8 [1, 7] | B cell numbers in peripheral blood [3, 8] | monocyte numbers in peripheral blood [3, 8] | IL-2 response of PBMCs (PBMCs) | IL-6 response of PBMCs (PBMCs) | IL-8 response of PBMCs (PBMCs)
OKT3: mouse mAb against human CD3 for suppressing renal allograft rejection (Biolegend) | significant increase in the circulating levels of IL-2, IL-6, IL-8 and IFN-γ | IL-2 expression was diminished 24-hours post injection, the other cytokines remained elevated | 0.1318 ng/mL | did not induce a significatively increase | transient decrease | complete depletion | 4 fold | increase; also recorded: slightly increase | not | 1.5128 ng/mL | 0.7226 ng/mL |  |  |  |  |  |  | 
Alemtuzumab: humanized anti-CD52 antibody for treating chronic lymphocytic leukemia (Campath, Genzyme) | increase in the serum levels of IL-2, IL-6, IL-8 and IL-1β | most cytokines, except IL-1β, had returned to the baseline level | 0.0192 ng/mL | did not induce a significatively increase | complete depletion | complete depletion |  | increase |  |  |  | 0.0316 ng/mL | 0.2241 ng/mL | complete depletion | complete depletion; also recorded: only residual monocytes cell remaining at 24 hrs | 14.0 pg/mL | 88 pg/mL | 6050 pg/mL

From patent publication US20150007357A1, “Use Of Humanized Mice To Determine Toxicity” (Massachusetts Institute Of Technology, priority 2011, published 2015)
